Measurements published in the supplement of paper PMC9170038.

Assays:
MS2 coat protein [1] = experiment: apparent KD of MS2 coat protein, switch ON state; designed switch direction (-1 OFF switch, 1 ON switch): 1; higher = weaker reporter binding; conditions: FMN input: 0 or 200 uM; Eterna round: R93 (includes R88 designs)
How it was run: (§1)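 Designed RNA switches were transcribed on-chip from Illumina sequencing clusters. SNAP-549-labelled MS2 coat protein was titrated onto them in twofold steps from 0.7 or 1.5 nM to 3 µM in 100 mM Tris-HCl pH 7.5, 80 mM KCl, 4 mM MgCl2, either without or with constant ligand. Apparent KD reflects the per-design median of normalised cluster binding-curve fits.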

MS2 coat protein [2] = experiment: apparent KD of MS2 coat protein, switch OFF state (with FMN for OFF switches, without FMN for ON switches); designed switch direction (-1 OFF switch, 1 ON switch): 1; higher = weaker reporter binding; conditions: FMN input: 0 or 200 uM; Eterna round: R93 (includes R88 designs)
How it was run: as §1

| Sequence | apparent KD of MS2 coat protein (MS2 coat protein [1]) [nM] | apparent KD of MS2 coat protein (MS2 coat protein [2]) [nM] |
| --- | --- | --- |
| UGAAGACAUGAGGAUCACCCAUGUGGGAAUAUGGGAGGAUAUACAAAGACGAGAGUCAGAGUAGAAGGCCUAGGAA [salish99-ss1-95] | 28.5 | 114 |
| AAAUAAAGGACUGAGGAUAUACCACAUGAAACAUGAGGAUCACCCAUGUUGAAAAACAGAGGGUGGUAGAAGGCAGUCCACAAAC [Same State 2.5d ( so lets mod hyphema)] | 12.5 | 23.3 |
| UGGAGACAUGAGGAUCACCCAUGUGAGAAGAGGCGAGGAUAUCGAAAGAAAGAAGAGAAACGAGAAGGCGCGAGGA [salish99-SS1-039] | 47.6 | 49.8 |
| AAAAAGAACACGCAGGAUAUGCAAAGAAACACAUGAGGAUCACCCAUGUCCAAAAACCCAAAAACGCAGAAGGGCGAAAAACCCA [Default title] | 25.6 | 28.3 |
| GAAAAACAUGAGGAUCACCCAUGUAGAAAUAUGGGAGGAUAUACAAAGACGAAAGUCAAAGUAGAAGGCCUGAUAG [JL S1 M-MoE mod 3] | 28.6 | 79.2 |
| AUAAAACAUGAGGAUCACCCAUGUCCGACAAAUCAAGGAUAUGAGAGCCAAACCAGGCUGUUAGAAGGUGAAAGAA [Edorlebere] | 154 | 182 |
| AGGAGACAUGAGGAUCACCCAUGUGAGAAGAGGCGAGGAUAUCGAAAGAAAGAAGAGAAACGAGAAGGCGCGAGAG [salish99-SS1-025] | 28.4 | 37.4 |
| AAAAAACAUGAGGAUCACCCAUGUCAAAAGACGUGAGGAUAUGUACAGACUUCGGUCUGUACAGAAGGCAUGUAAA [SS1 - 1053] | 21.3 | 144 |
| AAAGACAUAGUUCAGGAUAUGGUAAUAGUCACAUGAGGAUCACCCAUGUGCAUUUAUAUGCGCGAUCAGAAGGGAGGUAAAAAAA [SameState2 Malc#16] | 17.5 | 21.9 |
| CGAAAGGAGAGAGAGGAUAUCCAAAGGAAAACAUGAGGAUCACCCAUGUAGAAGGUAGGAGAUUGGGAGAAGGCUCAAGAGAGAC [salish99-ss2-148] | 24 | 48.2 |
| AAUAAUUAUACGAAGGAUAUCGGUAUUAAGACAUGAGGAUCACCCAUGUAAUAUGGUUAUAUAAACGAGAAGGUCGAGGGUGAAA [JR_SS002_Sub008] | 38.6 | 36.9 |
| AUAAAACAUGAGGAUCACCCAUGUAGAAAUAUGGGAGGAUAUACGAAGACGAAAGUCGAAGUAGAAGGCCUAAAAG [Mat - Same State 1 - Meechl mod - D116] | 27.7 | 67.7 |
| GAAAAGAAAACACAGGAUAUCCAAAAGAAAACAUGAGGAUCACCCAUGUAAAGAAAAUAAAAAUGGGAGAAGGGUGAAAGAAAGA [Mat - Same State 2 - JL mod - D42] | 20.9 | 53.6 |
| AUAAAUAAAAGUGAGGAUAUCCAAAAAAAAACAUGAGGAUCACCCAUGUAAAAGAAAAUAAAAUGGGAGAAGGCACAAAAUAAAU [SS2 M 10] | 11.9 | 26.2 |
| AGAAAUAAAAGAGAGGAUAUCCAAAAGAAAACAUGAGGAUCACCCAUGUAAAAGAAAAUAAAAUGGGAGAAGGCUCAAUAAAAGA [Modifying Jieux] | 17.9 | 42 |
| UGGAGACAUGAGGAUCACCCAUGUGAGAAGAGGCGAGGAUAUCGAAAGAAAGAAGAGAAACGAGAAGGCGCGAGGU [salish99-SS1-036] | 34.4 | 49.6 |
| AAACCACAUGAGGAUCACCCAUGUAAAAAUAUGGGAGGAUAUGCGAAAAGAAACAAAGAAGCAGAAGGCCUAAAAA [75%, Ex sub1, 19] | 26.3 | 114 |
| CGGCUAAACGGGCAGGAUAUGUUCACUAGAACAUGAGGAUCACCCAUGUGAAACUGGCGAUAAUCGCAGAAGGGCCCGUGCACGA [Atensoin] | 17.6 | 61.3 |
| AAAAAAAAAAGAGAGGAUAUCCAAAAAAAAACAUGAGGAUCACCCAUGUAAAAAAAAAAAAAAUGGGAGAAGGCUCAAAAAAAAAA [Helter Skelter 1] | 33.4 | 54.8 |
| AAUAUACAUGAGGAUCACCCAUGUUUUAAUAGCUGAGGAUAUACGGGUGAAAACAGCAUAGUAGAAGGCAGGUAUA [SameState1 Malc#7] | 27.6 | 86.7 |
| AAAUAACAUGAGGAUCACCCAUGUUACGACGUUACAGGAUAUGUGGGUGAAAAUAGCAUGACAGAAGGGUACCGUA [SameState1 Malc#37] | 68.5 | 60.3 |
| GGGAGGAAGAGAGAGGAUAUCCAAAGGAAAACAUGAGGAUCACCCAUGUAAAAGGUAGGAAAUUGGGAGAAGGCUCAAAAGAUGG [salish99-ss2-046] | 70.5 | 22.3 |

| Sequence | apparent KD of MS2 coat protein (MS2 coat protein [1]) [nM] | apparent KD of MS2 coat protein (MS2 coat protein [2]) [nM] |
| --- | --- | --- |
| GAAGACAUAGUUCAGGAUAUAUGAAUAGUCACAUGAGGAUCACCCAUGUCCAUUUAUAUGGGCACAUAGAAGGGAGGUAGUUAUC [SameState2 Malc#25] | 618 | 380 |
| AUAAAACAUGAGGAUCACCCAUGUAAAAAUAUGGGAGGAUAUACGAAAUAAAAUAAAUACGUAGAAGGCCUAAAAA [SS! MT 20] | 20.2 | 111 |
| UAUCAUUACACGAAGGAUAUCGAUAAUUGAACAUGAGGAUCACCCAUGUGAUAUAUAAUACAGUUCGAGAAGGUCGAGGGUGAAG [JR_SS002_Sub704] | 17.8 | 23.9 |
| AACAGGAAGAGAGAGGAUAUCCAAAGGAAAACAUGAGGAUCACCCAUGUAAAAGGUAGGAAAUUGGGAGAAGGCUCAAGAGAGAG [salish99-ss2-089] | 24.8 | 47.3 |
| AAAAAACAUGAGGAUCACCCAUGUCUUCGGACGUGAGGAUAUGUACAGACUUCGGUCUGUACAGAAGGCACGAAAA [SS1 - 1035] | 22.7 | 114 |
| AACAAUCUAUCUGAGGAUAUCAUGUCAAAGACAUGAGGAUCACCCAUGUGUAGGAAAACUACAUAUGAGAAGGCAGAUAGAUUGA [SS2 :P - 598] | 610 | 103 |
| UGAAGACAUGAGGAUCACCCAUGUGGGAAUAUGGGAGGAUAUACAAAGACGAGAGUCAGAGUAGAAGGCCUAGGAG [salish99-ss1-97] | 55.1 | 103 |
| GACAGACAUGAGGAUCACCCAUGUAGAAUUAUGGGAGGAUAUACAAAGACGAGAGUCAGAGUAGAAGGCCUAGGAA [salish99-ss1-167] | 23.2 | 52.8 |
| CCGAUGGUAUACUAGGAUAUGGGCGCCCUUACAUGAGGAUCACCCAUGUUAUCACAAAUCCGCGGCCAGAAGGAGUUCAUGGGAG [Ustiririra] | 62.8 | 151 |
| AGAAAACAUGAGGAUCACCCAUGUAGAAAUAUGGGAGGAUAUACAAAGACGAAAGUCAGAGUAGAAGGCCUAAAAA [salish99-SS1-085] | 14.6 | 77.3 |
| GGGAGACAUGAGGAUCACCCAUGUGAGAAGAGGCGAGGAUAUCGAAAGAAAGAAGAGAAACGAGAAGGCGCGAGUG [salish99-SS1-058] | 64.8 | 82 |
| AGAAAUAAAAGAGAGGAUAUCCAAAAGAAAACAUGAGGAUCACCCAUGUAAAAGAAAAUAAAGUGGGAGAAGGCUCAAAAUAAGA [Jieux modified] | 16.4 | 129 |
| AGAAAUAAAACGCAGGAUAUCCAAAAGAAAACAUGAGGAUCACCCAUGUAAAAGAAAAUAAAAUGGGAGAAGGGCGAAAUAAAGA [Mat - Same State 2 - Eli mod - D92] | 19.3 | 20.9 |
| GGGAGGAAGAGAGAGGAUAUCCAAAGGAAAACAUGAGGAUCACCCAUGUAAAAGGUAGGAAAUUGGGAGAAGGCUCAAAAGAGUG [salish99-ss2-043] | 13.7 | 22.2 |
| GAUAGGAAGAGAGAGGAUAUCCAAAGGAAAACAUGAGGAUCACCCAUGUAAAAGGUAGGAAAUUGGGAGAAGGCUCAAGAGAGAG [salish99-ss2-075] | 11.6 | 31.9 |
| AAAAAACAUGAGGAUCACCCAUGUCCUCACGUGCGAGGAUAUGGAUGGAAACCAUACUGUCCAGAAGGCGCAUGUA [EteRNA is fun!] | 230 | 159 |
| AAAAGACAUGAGGAUCACCCAUGUAAAGACAUGAGAGGAUAUGCAUGGAAAACAUGCUGUGCAGAAGGCUCAUGUC [SS1 - 17] | 18.1 | 22.6 |
| AACAAUCUAUCUGAGGAUAUCAUGACAAAGACAUGAGGAUCACCCAUGUCCAGGAAAACUGGUUAUGAGAAGGCAGAUAGAUUGA [SS2: 1112] | 9.7 | 13.2 |
| AAAAGACAUGAGGAUCACCCAUGUGAAAACGUAGGAGGAUAUGUCUGGAAAACAGACUGGACAGAAGGCCUGUGUC [SS1 - 33] | 24.4 | 36 |
| CAGGACAUAGGAUAGGAUAUAUGAAUAAUUACAUGAGGAUCACCCAUGUCCAUUUAUAUGGGAACAUAGAAGGGUUGUAGUUAUG [Mat - Same state - Malcolm Mod - D143] | 515 | 388 |
| AAAUAAAUGACUAAGGAUAUAUCAAAAGAAACAUGAGGAUCACCCAUGUAAUAAUAAAAAGGGUGAUAGAAGGUAGUCAACAAAC [74%, More Paria 4] | 24.6 | 115 |
